For experiment [1], the target named is FcγRIIB (CD32b), Y163 allotype (UniProt P31994). Nature of the experiment: SPR. For orientation: Surface plasmon resonance follows binding to a sensor surface in real time, without labels.
Experiment [2] addresses FcγRIIIA (CD16a), F158 allotype (UniProt P08637). Put plainly: SPR.
Experiment [3] deals with neonatal Fc receptor (FcRn) (UniProt P55899). Nature of the experiment: SPR, Ab captured on goat anti-human IgG, FcRn flowed, pH 6.0.

Several values for one entry are separate records, joined by “and”; a condition that tells them apart may be missing. Equal entries are not always repeated.

A word on the Kd: it is the equilibrium constant for the complex coming apart. Lower therefore signals tighter binding.

Sequence of FcγRIIB (CD32b), Y163 allotype (P31994 43-217 limits assumed): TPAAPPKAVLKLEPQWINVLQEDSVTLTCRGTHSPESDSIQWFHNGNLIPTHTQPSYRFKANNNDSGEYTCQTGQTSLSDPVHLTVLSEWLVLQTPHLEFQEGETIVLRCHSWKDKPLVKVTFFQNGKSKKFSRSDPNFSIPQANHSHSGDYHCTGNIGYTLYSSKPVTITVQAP
Sequence of FcγRIIIA (CD16a), F158 allotype (P08637 17-208 limits assumed): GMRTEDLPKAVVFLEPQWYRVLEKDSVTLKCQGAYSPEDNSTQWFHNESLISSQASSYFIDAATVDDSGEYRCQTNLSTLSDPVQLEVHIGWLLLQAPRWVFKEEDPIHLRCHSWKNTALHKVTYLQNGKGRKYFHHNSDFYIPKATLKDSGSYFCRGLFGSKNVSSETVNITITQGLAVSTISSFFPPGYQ
Sequence of neonatal Fc receptor (FcRn) (P55899 24-297 limits assumed, chain 1 of 2): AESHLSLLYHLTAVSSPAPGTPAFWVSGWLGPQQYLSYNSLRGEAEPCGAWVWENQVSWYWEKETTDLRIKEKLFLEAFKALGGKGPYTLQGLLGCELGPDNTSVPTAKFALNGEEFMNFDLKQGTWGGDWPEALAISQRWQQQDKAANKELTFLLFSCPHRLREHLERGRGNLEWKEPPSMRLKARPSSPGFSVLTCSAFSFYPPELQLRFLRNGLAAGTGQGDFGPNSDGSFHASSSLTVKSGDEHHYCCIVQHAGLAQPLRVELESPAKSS
Sequence of neonatal Fc receptor (FcRn) (P61769 21-119 limits assumed, chain 2 of 2, further chain): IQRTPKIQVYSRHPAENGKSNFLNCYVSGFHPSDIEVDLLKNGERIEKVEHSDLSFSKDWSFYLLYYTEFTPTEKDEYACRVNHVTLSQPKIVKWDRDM

Take “D399C_F405A_Y407V / T366L_K392C_T394W (antibody)”: the dissociation constant (Kd) in experiment [1] was determined as 1200 nM; in experiment [2], 510 nM.

Take “F405A_Y407V / T366L_K392M_T394W (antibody)”: in experiment [2], the Kd is 460 nM.

In experiment [2], F405A_Y407V / T366L_T394W (antibody) displayed a Kd of 480 nM.

For Herceptin WT (antibody), the Kd in experiment [1] was 1700 nM; in experiment [3], 3700 nM.

Consider “L351Y_F405A_Y407V / T366L_K392M_T394W (antibody)”, for which the values for the Kd in experiment [2] and in experiment [3] were 420 nM and 5000 nM, respectively.

For the substance “Q347R_T350V_L351Y_S400E_F405A_Y407V / T350V_K360E_T366L_N390R_K392M_T394W (antibody)”, the results for the Kd in experiment [1] and in experiment [2] were 920 nM and 420 nM, respectively.

Turning to “T350V_F405A_Y407V / T350V_T366L_K392M_T394W (antibody)”, the Kd in experiment [1] is 1000 nM.

In the case of “T350V_L351Y_F405A_Y407V / T350V_T366L_K392L_T394W (antibody)”, the Kd in experiment [1] stood at 990 nM; in experiment [3], 3900 nM.

With “T350V_L351Y_F405A_Y407V / T350V_T366L_K392M_T394W (antibody)”, the Kd in experiment [1] was found to be 1200 nM; in experiment [2], 460 nM; in experiment [3], 4300 nM.

As to “T350V_L351Y_S400E_F405A_Y407V / T350V_L351Y_T366L_N390R_K392M_T394W (antibody)”, the Kd in experiment [1] stood at 710 nM.

In experiment [1], “T350V_L351Y_S400E_F405A_Y407V / T350V_T366L_N390R_K392F_T394W (antibody)” yielded a Kd of 710 nM.

“T350V_L351Y_S400E_F405A_Y407V / T350V_T366L_N390R_K392L_T394W (antibody)” yielded a Kd in experiment [1] of 910 nM.

Consider “T350V_L351Y_S400E_F405A_Y407V / T350V_T366L_N390R_K392M_T394W (antibody)”, for which the Kd in experiment [1] was 900 nM; in experiment [2] it was 450 nM and 420 nM; in experiment [3], 5000 nM.

“T350V_L351Y_S400E_F405S_Y407V / T350V_T366L_N390R_K392M_T394W (antibody)”: the Kd came to 830 nM in experiment [1] and 420 nM in experiment [2].

Regarding “T350V_L351Y_S400E_F405T_Y407V / T350V_T366L_N390R_K392M_T394W (antibody)”, in experiment [1], the dissociation constant Kd stood at 670 nM.

“T350V_L351Y_S400R_F405A_Y407V / T350V_T366L_K392M_T394W (antibody)”: the dissociation constant (Kd) in experiment [1] came out at 890 nM.

The substance “T350V_L351Y_S400R_F405A_Y407V / T350V_T366L_N390D_K392M_T394W (antibody)” showed a Kd in experiment [1] of 940 nM.

As to “T350V_L351Y_S400R_F405A_Y407V / T350V_T366L_N390E_K392M_T394W (antibody)”, the Kd in experiment [1] came to 890 nM; in experiment [2], 420 nM.

As for “T350V_S400E_F405A_Y407V / T350V_T366L_N390R_K392M_T394W (antibody)”, the dissociation constant Kd in experiment [1] is 1000 nM; in experiment [2], 450 nM.

“Y349C_D399C_F405A_Y407V / S354C_T366L_K392C_T394W (antibody)”: the Kd in experiment [2] came out at 630 nM.

Turning to “Y349C_F405A_Y407V / S354C_T366L_T394W (antibody)”, the dissociation constant (Kd) was found to be 1200 nM in experiment [1] and 580 nM in experiment [2].

Turning to “Y349C_T350V_F405A_Y407V / T350V_S354C_T366L_K392M_T394W (antibody)”, the dissociation constant (Kd) was found to be 460 nM in experiment [2] and 4100 nM in experiment [3].

With “Y349C_T350V_L351Y_S400E_F405A_Y407V / T350V_S354C_T366L_N390R_K392M_T394W (antibody)”, the dissociation constant (Kd) stood at 950 nM in experiment [1] and 420 nM in experiment [2].
